Measurements: patent US20110045489A1, “Polymerases for Incorporating Modified Nucleotides” (NEW ENGLAND BIOLABS, INC., priority 2008, published 2011)
Positions count from the first letter of the chain named. Names and notes keep the numbering of the source.

B1: Mma exo-: exonuclease minus DNA polymerase from Methanococcus maripaludis, SEQ ID NO:22 (protein, listed as Methanococcus maripaludis)
chain: MESLIDLDYNSDDLCIYLYLINSIIKEKDFKPYFYVNSTDKEQILEFLKDYEKKHKLDSEISKMIENIETVKKIVFDENYQEKELSKVTVKYPNNVKTVREILMEFERLYEYDIPFVRRYLIDNSVIPTSTWDFENNKKIDNKIPDFKTVSFAIAVYCNKEPNPKKDPIIMASFSSKDFNTVVSTKKFDHEKLEYVKDEKELIKRIIEILKEYDIIYTYNGDNFDFPYLKKRAESFGLELKLGKNDEKIKITKGGMNSKSYIPGRVHIDLYPIARRLLNLTKYRLENVTEALFDVKKVDVGHENIPKMWDNLDETLVEYSHQDAYYTQRIGEQFLPLEIMFSRVVNQSLYDINRMSSSQMVEYLLLKNSYKMGVIAPNRPSGKEYQKRIRSSYEGGYVKEPLKGIHEDIVSMDFLSLYPSIIMSHNLSPETIDCTCCSDEENGENEEILGHKFCKKSIGIIPKTLMDLINRRKKVKKVLREKAEKGEFDEEYQILDYEQRSIKVLANSHYGYLAFPMARWYSRDCAEITTHLGRQYIQKTIEEAENFGFKVIYADTDGFYSKWADDKEKLSKYELLEKTREFLKNINNTLPGEMELEFEGYFKRGIFVTKKKYALIDENEKITVKGLEVVRRDWSNVSKNTQKNVLNALLKEGSVENAKKVIQDTIKELKDGKVNNEDLLIHTQLTKRIEDYKTTAPHVEVAKKILKSGNRVNTGDVISYIITSGNKSISERAEILENAKNYDTNYYIENQILPPVIRLMEALGITKDELKDSKKQYTLHHFLK
modifications: (1)..(784) Exo-
B2: Mma D153A/E155A/L417S/P419V: Methanococcus maripaludis DNA polymerase mutant (protein)
chain: B1 chain with L417S, P419V
B3: 9° N D141A/E143A/Y409A/R406S/L408I: 9° N DNA polymerase mutant (protein, UniProt Q56366 1-775, looked up, variant D141A E143A Y409A R406S L408I)
DNA polymerase: MILDTDYITENGKPVIRVFKKENGEFKIEYDRTFEPYFYALLKDDSAIEDVKKVTAKRHGTVVKVKRAEKVQKKFLGRPIEVWKLYFNHPQDVPAIRDRIRAHPAVVDIYEYDIPFAKRYLIDKGLIPMEGDEELTMLAFAIATLYHEGEEFGTGPILMISYADGSEARVITWKKIDLPYVDVVSTEKEMIKRFLRVVREKDPDVLITYNGDNFDFAYLKKRCEELGIKFTLGRDGSEPKIQRMGDRFAVEVKGRIHFDLYPVIRRTINLPTYTLEAVYEAVFGKPKEKVYAEEIAQAWESGEGLERVARYSMEDAKVTYELGREFFPMEAQLSRLIGQSLWDVSRSSTGNLVEWFLLRKAYKRNELAPNKPDERELARRRGGYAGGYVKEPERGLWDNIVYLDFSSIAPSIIITHNVSPDTLNREGCKEYDVAPEVGHKFCKDFPGFIPSLLGDLLEERQKIKRKMKATVDPLEKKLLDYRQRAIKILANSFYGYYGYAKARWYCKECAESVTAWGREYIEMVIRELEEKFGFKVLYADTDGLHATIPGADAETVKKKAKEFLKYINPKLPGLLELEYEGFYVRGFFVTKKKYAVIDEEGKITTRGLEIVRRDWSEIAKETQARVLEAILKHGDVEEAVRIVKEVTEKLSKYEVPPEKLVIHEQITRDLRDYKATGPHVAVAKRLAARGVKIRPGTVISYIVLKGSGRIGDRAIPADEFDPTKHRYDAEYYIENQVLPAVERILKAFGYRKEDLRYQKTKQVGLGAWLKVKGKK
B4: 9° N D141A/E143A/Y409A/S411T: 9° N DNA polymerase mutant (protein, UniProt Q56366 1-775, looked up, variant D141A E143A Y409A S411T)
DNA polymerase: B3 DNA polymerase with S406R, I408L, S411T
B5: 9° N D141A/E143A/Y409A/P410R/S411T: 9° N DNA polymerase mutant (protein, UniProt Q56366 1-775, looked up, variant D141A E143A Y409A P410R S411T)
DNA polymerase: B3 DNA polymerase with S406R, I408L, P410R, S411T
B6: 9° N D141A/E143A/N491L/Y494S: 9° N DNA polymerase mutant (protein, UniProt Q56366 1-775, looked up, variant D141A E143A N491L Y494S)
DNA polymerase: B3 DNA polymerase with S406R, I408L, A409Y, N491L, Y494S
B7: 9° N D141A/E143A/Y409A/R406V/L408Y: 9° N DNA polymerase mutant (protein, UniProt Q56366 1-775, looked up, variant D141A E143A Y409A R406V L408Y)
DNA polymerase: B3 DNA polymerase with S406V, I408Y
B8: 9° N D141A/E143A/L408S/Y409A/P410V/S411T: 9° N DNA polymerase mutant (protein, UniProt Q56366 1-775, looked up, variant D141A E143A L408S Y409A P410V S411T)
DNA polymerase: B3 DNA polymerase with S406R, I408S, P410V, S411T
B9: 9° N D141A/E143A/Y409A/R406V/A485L: 9° N DNA polymerase mutant (protein, UniProt Q56366 1-775, looked up, variant D141A E143A Y409A R406V A485L)
DNA polymerase: B3 DNA polymerase with S406V, I408L, A485L
B10: 9° N D141A/E143A/L408P/Y409A/P410V/S411T: 9° N DNA polymerase mutant (protein, UniProt Q56366 1-775, looked up, variant D141A E143A L408P Y409A P410V S411T)
DNA polymerase: B3 DNA polymerase with S406R, I408P, P410V, S411T

system: 3′-O-azidomethyl-dCTP; assay: Titration assay, incorporation of 3′-O-azidomethyl-dCTP; assay type: biochemical; conditions: 10:1 or 1:1 3′-O-azidomethyl-dCTP:dNTP; 72° C. (9° N) or 37° C., 30 minutes
Description: Reactions were also performed in the absence of terminators to ensure that synthesis by each DNA polymerase was sufficient to extend primers without premature termination (“dNTP” lanes). Reactions with Therminator™ (NEB, Inc., Ipswich, Mass.) and 9° N exo-L408P/Y409A/S411T DNA polymerase (SEQ ID NO:6) were incubated at 72° C. for 30 minutes. Reactions with E. coli Polymerase I (pol I) (NEB, Inc., Ipswich, Mass.), Sequenase™, (USB, Inc., Cleveland, Ohio), Mma exo- and Mma exo-L417P/Y418A/S420T were incubated at 37° C. for 30 minutes. Each band corresponds to a DNA fragment terminated by a 3′-azido-dCMP. Using a titration assay as described in Gardner and Jack (2002), the relative 3′-azido-dCTP incorporation efficiency was determined for a series of DNA polymerases.
Incorporation of 3′-O-azidomethyl-dCTP by various DNA polymerases was measured using the titration assay as described in Example 1. For each reaction, a ratio of either 10:1 or 1:1 3′-O-azidomethyl-dCTP:dNTP was used to generate a termination pattern. Each band corresponded to a DNA fragment terminated by a 3′-azido-dCMP. A control reaction lacking terminator (dNTP) which yielded large extension products gave assurance that the DNA polymerase was active, and that termination products resulted from terminator incorporation rather than incomplete polymerization. Reactions with Therminator™ (NEB, Inc., Ipswich, Mass.) and 9° N exo-L408P/Y409A/S411T DNA polymerase were incubated at 72° C. for 30 minutes. Reactions with E. coli Polymerase I (pol I) (NEB, Inc., Ipswich, Mass.), Sequenase™ (USB, Inc., Cleveland, Ohio), Mma exo- and Mma exo-L417P/Y418A/S420T were conducted at 37° C. for 30 mintues. Therminator™ (NEB, Inc., Ipswich, Mass.) DNA polymerase was assayed with a 1:1 ratio of acyCTP as control.

Row | Molecule | 3′-O-azidomethyl-dCTP incorporation / termination of synthesis
1 | E. coli DNA polymerase I (pol I): commercial E. coli DNA polymerase I (NEB, Inc.) [reference compound] | failed to terminate synthesis
2 | B1 | failed to terminate synthesis

same assay, conditions: 10:1 or 1:1 3′-O-azidomethyl-dCTP:dNTP; 72° C. or 37° C., 30 minutes; FIG. 8

Row | Molecule | relative 3′-O-azidomethyl-dCTP incorporation efficiency, rank order
3 | B1 | greater than Sequenase™

system: modified nucleotide; assay: Screen of DNA polymerase mutants for modified nucleotide incorporation; assay type: biochemical; conditions: not given
Method in brief: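 Purified 9° N exo- DNA polymerase mutants from a library screened for 3′-modified terminator (3′-azido-ddCTP, 3′-amino-ddCTP) incorporation by chain-terminator titration. Efficiency judged from reaction product size; relative efficiency from amount of terminator needed to give the same product spectrum.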

Row | Molecule | increase of modified nucleotide incorporation
4 | B2 | at least two-fold
5 | B3 | at least two-fold
6 | B4 | at least two-fold
7 | B5 | at least two-fold
8 | B6 | at least two-fold
9 | B7 | at least two-fold
10 | B8 | at least two-fold
11 | B9 | at least two-fold
12 | B10 | at least two-fold
